Reference: patent US20020110800

Target: wild-type TrkA, baculovirus-expressed, activated (autophosphorylated) (UniProt P04629)

B1: SHP-2 (enzyme, UniProt Q06124 2-593, looked up, species assumed)
Tyrosine-protein phosphatase non-receptor type 11: TSRRWFHPNITGVEAENLLLTRGVDGSFLARPSKSNPGDFTLSVRRNGAVTHIKIQNTGDYYDLYGGEKFATLAELVQYYMEHHGQLKEKNGDVIELKYPLNCADPTSERWFHGHLSGKEAEKLLTEKGKHGSFLVRESQSHPGDFVLSVRTGDDKGESNDGKSKVTHVMIRCQELKYDVGGGERFDSLTDLVEHYKKNPMVETLGTVLQLKQPLNTTRINAAEIESRVRELSKLAETTDKVKQGFWEEFETLQQQECKLLYSRKEGQRQENKNKNRYKNILPFDHTRVVLHDGDPNEPVSDYINANIIMPEFETKCNNSKPKKSYIATQGCLQNTVNDFWRMVFQENSRVIVMTTKEVERGKSKCVKYWPDEYALKEYGVMRVRNVKESAAHDYTLRELKLSKVGQGNTERTVWQYHFRTWPDHGVPSDPGGVLDFLEEVHHKQESIMDAGPVVVHCSAGIGRTGTFIVIDILIDIIREKGVDCDIDVPKTIQMVRSQRSGMVQTEAQYRFIYMAVQHYIETLQRRIEEEQKSKRKGHEYTNIKYSLADQTSGDQSPLPPCTPTPPCAEMREDSARVYENVGLMQQQKSFR
  dephosphorylation of 32P-autophosphorylated Trk in vitro: approximately 5-fold dephosphorylation
